The text below walks through data of the nanobody polyreactivity screen of Harvey et al. (2022).

The nature of the series: yeast display, Sf9 membrane polyspecificity reagent, FACS + sequencing; frameworks hold sequencing errors. Put shortly:
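Synthetic nanobody libraries on Saccharomyces cerevisiae BJ5465 were galactose-induced for 36–48 hours, stained 1 hour at 4 °C with 10% biotinylated, detergent-solubilized Sf9 membrane reagent and enriched on streptavidin microbeads. FACS then separated cells into low and high (top ~1%) gates by anti-HA (expression) and streptavidin (reagent binding) fluorescence. Genes were colony-PCR amplified, MiSeq 2 × 250 sequenced and CDR-length filtered. A clone's polyreactivity label is that of its gate of origin.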
Regarding “QVQLVESGGGLVQAGGSLRLSCAASGFTFFLYAMGWYRQAPGKEMELVAAIHSRGGSTYYADSVKGRFTISRDNAKNTVSLQMNSLKPEDTAVYYCAAYIPRSSWGYDYWGQGTQVTVSS”, the “polyreactivity (PSR sort gate)” value is “high polyreactivity”. Take “QVQLLETGRGLFQEGGSLRLSCAASGGTFGAYVMGWYRQAPGKERELVAAISRSGTRTYYADSVKRRFTISRDNEKNTVYLQMNWLKPEDTAVYYCNAVGYTNRYDDWGQGTQVTVSS”: the “polyreactivity (PSR sort gate)” value is given as “high polyreactivity”. The value for “QVQLVESGGGLVQAGGSLRLSCASSGYTFRYYAMGWYRQAPGKERELVAAITRRGATTYYADSVKGRFTISRDNAKNTVYLQMNRLQPEDTADYYCNAVYQYGSFVTAAGNYWGQGTQVTVSS” was “high polyreactivity”.

For “QVQLVESGGGLVQAGGSLRLSCAASGSIFIANAMGWYRQAPGKERELVAAITLNGGSTYYADSVKGRFTISRDNAKNTVYLQMNSLKPEDTAVYYCAADWVWVAPQYWIDEYDYWGQGTQVTVSS”, the “polyreactivity (PSR sort gate)” value is “low polyreactivity”. As for “QVQLVESGGGLVQAGGSLRLSCAASGSIFDRYAMGWYRQAPGKERELVAAITGSGGSTYYADSVKGRFTISRDNAKNTVYLQMNSLKPEDTAVYYCNARARGAYVRYGYWGQGTQVTVSS”, the “polyreactivity (PSR sort gate)” value was “high polyreactivity”. The value for “QVQLVESGGGLVQAGGSLRLSCAASGFTFSSYAMGWYRQEPGKERELVAAISTSGASTYYADSVKGRFTISRDNAKNTVYLQMNSLKPEDTAVYYCNVPQWHRWYRYPGEDYDYWGQGTQVTVSS” was “high polyreactivity”; that for “QVQLVESGGGLVQAGGSLRVSCAASGYFFHYHAMGWYRHAPGKEREFVAAISQGGGSTYYADSVKGRFTISRDNAKKTVSLQMISLKPEDTAVYYCAADYRSGYREMDYWGQGTQVTVSS” was “low polyreactivity”. As for “QVQLVESGGGLVQAGGSLRLSCAASGSTFGKYAMGWYRQAPGKERELVAAITTGGNTYYADSVKGRFTISRDNAKNSVYLQMNSLKPEDTAVYYCNAKRSFRVDYWGQGTQVTVSS”, the “polyreactivity (PSR sort gate)” value was “low polyreactivity”. For the sequence “QVQLVESGGGLVQAGGSLRLSCAASGRTLAPYAMGWYRQAPGKERELVAISTIGGSTYYADSVKGRFTISRDNAKNTVYLQMNSLKPEETAVYYGAADGNSTGVYLAGGEGFAYDYWGQVTQVTVSS”, the “polyreactivity (PSR sort gate)” value is listed as “low polyreactivity”. As to “QVKRVESGGGLVQAGGSLRLSCAASGSIFDEYAMGWYIQAPGKERELVAAITRTGGRTYYADSVKGRFTISRENAKNSVYLQMNSLIPEDTAVYFCNAPSRTRYDYWGQGTQVTVSS”, the “polyreactivity (PSR sort gate)” value is reported as “low polyreactivity”. Consider “QVQLVESGGGLVQAGGSLRLSCAASGFIFACYAMAWYRQAPGKERELVATISSSGARTYYADSVKGRFTISRDNAKNTVYLQMNSLKPEDTAVYYCSAAGRYRPVSPYSGYNYWGQGTQVTVSS”, for which the “polyreactivity (PSR sort gate)” value was “high polyreactivity”.

“QVQLVESGGGLVQAGGSLRLSSAASGLIFRHNAMGWYRQAPGKERELVAAISSTGGRTYYADSVKGRFTISRDNAKNTVYLQMNSLKPEDTAVYYCAARHTKALWSPQNGYYWGQGTQVTVSS”: the “polyreactivity (PSR sort gate)” value is given as “high polyreactivity”. The entry for “QVQLVESGVGLVQAGGSLRLSCAASGFTLGRNAMGWYRQAPGKERELVASISGRGGSSYYADSVKGRFTISRDNAKNSVYLQMNSLKPEDTAVYYCAARGVSGKYYYWGQGTQVTVSS” is “high polyreactivity”; for “QVQLVESGGGLVQAGGSLRLICAASGIIFAVYARGCYRQAPGKERELVAAISTSGGRTDYADSVKGRFTISRDNAKNTVYLQMNSLKPEDTAVYYCAAEYVGKGTPDDYDYWGQGTQVTVSS” it is “high polyreactivity”; for “QVQLVESGGGLVQAGGSLRLSCAASGFITPWYAMGWYRQAAGKEREWVAAIDWSGGSTYYADSVKGRFTISRDNAKNSVYLQMNSVKPEDTAVYYCAARYYTASVRAGRVRMYYWGQGTQVTVSS” it is “high polyreactivity”. Consider “QVQLVESGGGLVQAGGSLRLSCAASGFTFTYYAMGWYRQAPAKERELVAAISSSGGRTYYADSVKGRFTISRDNAKNTVYLQMNSLKPEDTAVYYCAARSVSATPDFHYWGQGTQVTVSS”, for which the “polyreactivity (PSR sort gate)” value is “high polyreactivity”. Take “QVQLVESGGGLVQAGGSLRLSCAASGRIFGVNAMGWYRQAPGKERELVADISSGGSTYYADSVKGRFTISRDNAKNTVYLQMNSLKPEDTAVYYCAKAPRGRGLYDYWGQGTQVTVSS”: the “polyreactivity (PSR sort gate)” value was “low polyreactivity”. Regarding “QVQLVESGGGLVQAGGSLRLSCAASGGTFPYNAMGWYRQAPGTERELVAVITSGDGTYYADSVKGRFTNSRDNAKNTVYLQMNSLKPEDTAVDYCAAVIFWDVPYDYWGQGTQVTVSS”, the “polyreactivity (PSR sort gate)” value is listed as “low polyreactivity”. For “QVQLVESGGGLVQAGGSLRLSCAASGSIFSYTMGWYRQAPGKERELVAAITSGGITYYADSVKGRFTISRDNAKNTVYLQMNSLKPEDTAVYYCNKDVGFTRPLYYWGQGTQVTVSS”, the “polyreactivity (PSR sort gate)” value is listed as “low polyreactivity”.

Turning to “QDQHVESGGGLVQEGGSLRLSCASSSSTFEYYAMGWYRQPPGKERELVATISIDGRTNYADSVKGRFTISRDNAKNTVYLQMNSLKPEDTAVYYCAARPYWRHRYDYWVQGTQVTVSS”, the “polyreactivity (PSR sort gate)” value was “low polyreactivity”. The value for “QVQLVESGGGLVQAGCSLRLSCAASGSIFAVYAMGWYRQATGKERELVAAISWSVGSTYYADSVKGRFTISRDHAKNTVYFQMNSLKPEDTAVYYCAAELAYYLDYVEYFTEIDLEGYWGQGTQVTVSS” was “low polyreactivity”. The entry for “QVQLVESGGGLVQAGGSLRLSCAASGSTLFAYAMGWYRQAPGTERELVAAITSGASTNYADSVKGRFTISRDNAKNTVYLQMNSLKPEDTAVYYCAKDVSGTNPDYDYWGQGTQVTVSS” is “low polyreactivity”; for “QVQLVESGGGLVQAGGSLRLSCAASGFIFLVNAMGWYRHAPGKERELVAAITTSGASTYYADSVKGRFTISRDNAKNTVYLQMNSLKPEDTAVYYCAAGSYARPEYGYWGQGTQVTVSS” it is “low polyreactivity”.

Consider “QVQLVESGGGLVQAGGSLRLSCAASGSTFRFNAMGWYSQAPGKERELVAAITGIGGITYYADSVKGRFTISRDNAKNTVYLQMNSLKPEDTAVYYCNAVAARYSVRNGYSTHYDYWGQGTQVTVSS”, for which the “polyreactivity (PSR sort gate)” value is “high polyreactivity”.

As for “QVQLEESGGGLVQAGGSLRLSFAASGRIFRYYAMGWYRHAPGKERELVPRMSWSGGSTHYADSVKGRFTISRDNAKNTVYLQMNSLTPEDTAVYYCAADGNGYPYRAGRTYDYWGQGTQVTVSS”, the “polyreactivity (PSR sort gate)” value was “low polyreactivity”. The value for “QVQLVESGGGLVQAGGSLRLSCAASGIIFSWNTMGWYRQAPGKERELVAAISSSGGSTYYADSVKGRFTISRDNAKNTVYLQMNSLKPEDTAVYYCAADVYHWIHEYDYWGQGTQVTVSS” was “low polyreactivity”; that for “QVQVVESGGGLVQAGASLRLSCAATGSIFVWNDMGGYRQAPGTEREFVAAITSGDGSTYYADSVKGRFTISRDNAKNTGYLQMNSLKPEDTAVYYCAARLRVTGFYSRTRFYWGQGTQVTVSS” was “low polyreactivity”; that for “QVQLVESGGGLVQAGGSLRLSCAASGSTFRRYAMGWYRQAPGKERELVAAITSTDVNTYYADSVKGRFTISRDNAKNTVYFQMNSLKPEDTAVYYCAAVYLGYYGVSDMEYWGQGTQVTVSS” was “high polyreactivity”. Consider “QVQLVESGGGLVQAGGSLRLSCAASGSTFPTNTMGWYRQAPGKERELVAAITGGGSTYYADSVKGRFTISRDNAKNTVYLQMNSLKPEDTAVYYCAADDSWFYYGYGYWGQGTQVTVSS”, for which the “polyreactivity (PSR sort gate)” value is listed as “low polyreactivity”.

For “QVQLVESGGGLVQAGGSLRLSCAASGLIFNRYTMGWYRQAPGKERELVAAINRSGGNTYYADSVKGRFTISRDNAKNTVYLQMNSLKPEDTAVYYCNADYFSRTGYKYDYWGQGTQVTVSS”, the “polyreactivity (PSR sort gate)” value was “high polyreactivity”. The entry for “QVQLVESGGGLVQAGGSLRLSCADSGITFGLYAMGWYRQAPGKERELVAAISSSGGRTYYADSVKGRFTISRDIAKKTVYLQMYSLKPEDTAVYVCATDTDGFAANRPAGDGDWGQGTQVTVSS” is “high polyreactivity”; for “QVQLVDSGGCLVQAGGSLRLSCAASGRTFYRYAMGWYRQAPGKEREFVARITTSGGSTYYADSVKGRFTISRDNAKNTVYLKMNSLKPEDTEVYYCNARGVTYAFFRFDYWGQGTQVTVSS” it is “high polyreactivity”; for “QVQLVESGGGLVQAGGSLRLSCAASGSISSQYGMGWYRQAPGKERELVATIRDGGRTNYADSVKGRFTISRDNAKNTVYLQMNCLKPEDTAVYYCAALYWYYYTWPLYDYWGQGSQVTVSS” it is “low polyreactivity”.

Take “QVQLVESGGGLVQAGVSLRLSCAASGNIFRAYAMGWYRQAPGKERELVAAIDTTGGRTYYADSVKGRFTISRDNAKITVYLLMKSLKPEDTAVYYCAVRAPAYPYYRGFDYWGQGSQVTVSS”: the “polyreactivity (PSR sort gate)” value is “low polyreactivity”. The value for “QVQLVESGGGLVQAGGSLRLSCAASGRTFSAYAMGWYRQAPGKERELVAAISRSGGRTYYADSVKGRFTISRDNAKNTVYLEMNSLKPEDTAVYYCNARNLRDNQCTYDYWGQGTQVTVSS” was “high polyreactivity”; that for “QVQIVESGGGLVQAGGSLRLSCAASGFNYRGYAMGWYRQAPGKERELVASIRWNGGSTYYADSVKGRFTISRDNAKNTVYLLMNSLKPEDTAVYYCAAAYRYYGVAYGYDWGQGTQVTVSS” was “high polyreactivity”; that for “QVQLVESGGGLVQAGGSLRLSCAASGRTFNYYVMGWYRRAPGKERELVAAITWRGGRTYADSVKGRFTISRDNAKNTVYLQMNSLKPEDTAVYYCAAYTTKGYGYWGQGTQVTVSS” was “high polyreactivity”.

“QVQLVESGGGLFQAGGILRLSCAASGIIFWDNAMGWYRQAPGKERELVAAISRSGSRTYYADSVKGRFTISRDNAKNTVYLQMNSLKPEDTAVYYCARRYRARGSMYYWGQGTQVTVSS”: the “polyreactivity (PSR sort gate)” value is given as “high polyreactivity”. The entry for “QVQLVESGGGLVQAGGSLRLSCAASGFTLDYYAMGLYRQAPGKERELVAAITSGSITYYADSVKGRFTISRDNAKNTVYLQMNSLKPEDTAVYYCAAVGLVRYGYWGQGTQVTVSS” is “high polyreactivity”.

As to “QVQLVESGGGLVQAGGSLRLSCAASGIFTNNAMGWYRQAPGKERELVAAITIRGGSTYYADSVKGRFTISRDNAKNTVYLQMNSLKPEDTAVYYCAARGLGYTDLRSVHMYYWGQGTQVTVSS”, the “polyreactivity (PSR sort gate)” value is on record as “high polyreactivity”.
